In article PMC2744266, “The Ataxia (ax ^J) Mutation Causes Abnormal GABAA Receptor Turnover in Mice” (PLoS Genetics, 2009):

Target: T1, GABAAR α1 subunit, full length, expressed in HEK293 cells (UniProt P62812 28-455)
T1 sequence (looked up): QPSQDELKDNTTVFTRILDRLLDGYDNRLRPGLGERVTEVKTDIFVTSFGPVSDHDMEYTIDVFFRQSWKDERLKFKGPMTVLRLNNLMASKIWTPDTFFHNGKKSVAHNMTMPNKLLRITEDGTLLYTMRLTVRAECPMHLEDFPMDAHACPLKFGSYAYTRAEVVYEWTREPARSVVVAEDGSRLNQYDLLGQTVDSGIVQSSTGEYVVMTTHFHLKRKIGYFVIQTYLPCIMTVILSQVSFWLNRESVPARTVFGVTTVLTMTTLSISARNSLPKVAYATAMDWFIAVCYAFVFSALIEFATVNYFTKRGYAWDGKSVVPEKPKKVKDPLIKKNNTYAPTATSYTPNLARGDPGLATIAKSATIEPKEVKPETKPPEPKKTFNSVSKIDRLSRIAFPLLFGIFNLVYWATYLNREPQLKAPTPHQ
Experiment: cell-based or functional assay

B1: Endogenous Usp14 protein derived from mouse brain lysates (enzyme, mouse (endogenous in brain), UniProt Q9JMA1 1-493, looked up)
chain: MPLYSVTVKWGKEKFEGVELNTDEPPMVFKAQLFALTGVQPARQKVMVKGGTLKDDDWGNIKMKNGMTVLMMGSADALPEEPSAKTVFVEDMTEEQLATAMELPCGLTNLGNTCYMNATVQCIRSVPELKDALKRYAGALRASGEMASAQYITAALRDLFDSMDKTSSSIPPIILLQFLHMAFPQFAEKGEQGQYLQQDANECWIQMMRVLQQKLEAIEDDSGRETDSSSAPAVTPSKKKSLIDQYFGVEFETTMKCTESEEEEVTKGKENQLQLSCFINQEVKYLFTGLKLRLQEEITKQSPTLQRNALYIKSSKISRLPAYLTIQMVRFFYKEKESVNAKVLKDVKFPLMLDVYELCTPELQEKMVSFRSKFKDLEDKKVNQQPNANDKNSPPKEIKYEPFSFADDIGSNNCGYYDLQAVLTHQGRSSSSGHYVSWVRRKQDEWIKFDDDKVSIVTPEDILRLSGGGDWHIAYVLLYGPRRVEIMEEESEQ
  GABAAR α1-GFP surface membrane levels (surface biotinylation, HEK293 cells expressing GABAAR α1-GFP and GABAAR β3) with the competing peptide mRFP-GABAAR α1(334–346) against mRFP: 2.5 fold
